Test results from patent publication US20170073386A1.

Assays:
[1] = target: murine GITR expressed on cells (mouse) (UniProt O35714); experiment: cell-based or functional assay
[2] = target: murine GITR expressed on cells (mouse) (UniProt O35714); experiment: flow cytometry after treatment of mice with mGITRL-FP IgG2a; competitor DTA-1 as stain

murine GITR expressed on cells (mouse), sequence (O35714 20-228): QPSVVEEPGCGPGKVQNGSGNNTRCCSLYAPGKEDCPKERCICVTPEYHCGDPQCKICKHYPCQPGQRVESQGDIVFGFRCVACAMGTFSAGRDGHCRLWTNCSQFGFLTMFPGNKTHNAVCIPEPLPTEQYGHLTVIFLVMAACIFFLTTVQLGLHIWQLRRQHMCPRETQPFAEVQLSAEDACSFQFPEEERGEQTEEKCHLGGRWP

| EC50, GITR-dependent NFκB reporter gene cell assay (Jurkat mGITR) [1] | fold potency against DTA-1, GITR-dependent NFκB reporter gene cell assay [1] | reduction in GITR MFI (DTA-1 staining) on Tregs [2] | Substance |
| --- | --- | --- | --- |
| 2.31 nM | – | – | DTA-1 anti-GITR antibody |
| 0.05 nM | 50 fold | > 75% | mGITRL-FP mIgG2a (Fc fusion) |
